Consider five molecules from patent publication US11091795B2, “Compositions and methods for diagnosing and treating arrhythmias” (Arizona Board of Regents on Behalf of the University of …, priority 2016, dated 2021).

Entries after “also recorded” stand apart in the source; their conditions may differ.

The subject of data set [1] is patients with sickle cell disease. To be noted: cited from earlier work.
Data set [2] has as its system PBMCs isolated and cultured from patients with sickle cell disease. Briefly: Heme administration in vitro to PBMCs from sickle cell disease patients. To be noted: heme 100 uM, 16 h. The format is cell-based, human. The text has this: IL-18, associated with prolonged QTc and mortality, is induced by heme in PBMCs.
For data set [3], the system named is adults with moderate to severe sickle cell disease. As to conditions: cited from earlier work.
Another data set relates to sickle mice. As to conditions: cited from earlier work.
Another data set relates to sickle mice hearts. Briefly: Optical mapping of ex vivo perfused hearts with exogenous IL-18 in the perfusate. Also noted: species or system mouse. The text has this: (§1) Optical mapping: WT and sickle male mice (12-16 weeks) hearts underwent optical mapping. The optical apparatus has been previously described (Rutledge et al., 2014; supra). The values are presented as the mean±standard deviation. Student t test was used and a P value of <0.05 was considered statistically significant. Sample […] and activation maps with BCL pacing were made for both the control and sickle cell hearts.
(§2) To establish cause and effect, acute effects of IL-18 on the myocardial electrical phenotype were evaluated further in sickle mice. […] Longer perfusion of IL-18 led to the development of multiple PVCs and short-lived VTs (n=4/4 hearts, FIG. 5E).

A further data set has as its system WT mice hearts. Briefly: Optical mapping of ex vivo perfused hearts with exogenous IL-18 in the perfusate (WT). On the set-up: species or system mouse. To be noted: IL-18 via the perfusate (20 ng/min).
Source text: as §1, §2

In data set [4] the test system is transient outward K+ current (Ito) in sickle mouse cardiomyocytes. Briefly: Voltage clamp (patch clamp) of Ito in isolated cardiomyocytes. The format is cell-based. How it is done:
IL-18 reduces Ito in isolated sickle cardiomyocytes. Voltage clamp experiments were performed on fresh cardiomyocytes isolated from a sickle mouse exposed to IL-18 (FIG. 10).
Patch clamp protocol of Ito: Cardiomyocytes were isolated by standard enzymatic techniques and patch-clamp recordings of Ito were performed with an Axopatch-200B amplifier (Molecular Devices, Sunnyvale, Calif.) as described previously (El Gebeily et al., Pharmacol. 2010 Mar. 10; 629(1-3):96-103). Bath solution was Tyrode solution (mmol/L): 140 NaCl; 5.4 KCl; 1.8 CaCl2; 1 MgCl2; 0.33, Na2HPO4; 10 HEPES, 5.5 glucose (pH adjusted to 7.4 with NaOH). Pipette solution is (mmol/L): 110 K^+-aspartate, 20 KCl, 8 NaCl, 1 MgCl2, 1 CaCk2, 10 BAPTA, 4 K2ATP and 10 HEPES (pH adjusted to 7.2 KOH). Whole-cell voltage-clamp recordings were made using the ruptured patch-clamp technique with a patch-clamp amplifier, Axopatch 200 B (Axon Instruments, Foster City, USA). Pipettes resistances was ˜2 MΩ when filled with pipette solution. Series resistance in the whole-cell mode was compensated. Voltage-clamp currents were low-pass filtered at 1 kHz and digitized at 2 kHz. The total K+ current (Ipeak) was constructed from the current elicited by a series of 5 s test potentials at 10 mV increment from −110 mV to +50 mV from a holding potential of −80 mV at a frequency rate of 0.1 Hz. […] The data were recorded using pClamp 10.6 and analyzed with Clampfit (Axon Instruments, Foster City, USA). Current amplitudes were normalized to the cell capacitance and expressed as pA/pF. All experiments were carried out at room temperature (20-22° C.).
Background: The patch-clamp technique gives a direct electrical read-out from membranes.

Data set [5] relates to cardiac Nox4, p38, nitrotyrosine in sickle mice. Briefly: Acute IL-18 administration in vivo, cardiac Nox4/p38/nitrotyrosine. On the set-up: species or system mouse. As to conditions: within 5 minutes of IL-18 administration to sickle mice (5 ug/kg). The text has this:
Nitrotyrosine levels are considered a stable byproduct of the presence of peroxynitrite (ROS).

The next data set has as its target T1, IL-18 (Mus musculus, UniProt P70380).
T1 construct: endogenous in cells; host or cells: sickle mice, in vivo (circulating and cardiac IL-18)
T1 sequence (P70380 36-192): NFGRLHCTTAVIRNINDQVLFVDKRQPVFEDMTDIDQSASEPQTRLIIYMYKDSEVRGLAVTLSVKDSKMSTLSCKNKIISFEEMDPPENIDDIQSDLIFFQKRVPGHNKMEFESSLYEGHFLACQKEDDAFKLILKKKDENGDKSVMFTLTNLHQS
Briefly: Chronic (sustained) inhibition of IL-18 with IL-18bp in sickle mice. It counts as in vivo. To be noted: for myocardial fibrosis (Picrosirius Red staining): chronic/sustained (3 weeks) IL-18 inhibition; for diastolic function (change in E/E′, LV filling pressures, on echocardiography): chronic/sustained IL-18 inhibition. How it is done:
Based on the association of IL-18 with myocardial fibrosis and diastolic dysfunction, the functional role of IL-18 in the development of myocardial fibrosis and diastolic dysfunction was tested. […] The mechanisms of how IL-18 mediates sickle cardiomyopathy with prolonged repolarization, diastolic dysfunction, and myocardial fibrosis are unclear. Given the absence of significant IL-18 effect on WT mice and the vulnerability of sickle mice, microarray transcript profiling in murine LV tissue between the two mice was performed. A total of 1611 probes (812 annotated genes) were differentially expressed between sickle and WT mice (P≤0.05). […] Additionally, RT-PCR and western blot reveal sickle mice have reduced myocardial KCND2 and KCND3 gene expression levels (FIG. 6B) consistent with increased APD.
It is contemplated that IL-18/IL-18R signaling implicates Nox4 function in sickle heart arrhythmic response. In an acute setting, it is contemplated that IL-18-mediated Nox4 activation downregulates KCND2/KCND3 expression and associated Ito activity which prolongs APD promoting VT; in a chronic setting, it is contemplated that IL-18 induces Nox4-mediated myocardial apoptosis and subsequent fibrosis resulting in pathologic electrophysiological remodeling enhancing VT vulnerability. Briefly, myocardial action potentials reflect the sequential activation and inactivation of inward depolarizing (Na^+, Ca^2+) and outward repolarizing (K^+) current-carrying ion channels. The K^+ channel function determines membrane potential and refractoriness of the myocardium. […] These observations are coupled with increased nitrotyrosine (ROS marker) levels and p38 MAPK activation (within 5 mins and sustained for 45 mins) in vivo. Reduced Ito is also associated with IL-18-induced prolonged APD, promoting early after depolarizations (EADs) and reentry formation in sickle cell hearts. Several reports have shown direct Nox4 interactions with IL-18R as well as Nox4-medaited p38 MAPK activation in cardiomyocytes resulting in reduced KCND2/KCND3 mRNA expression (and Ito current) (Li et al., 2012. J Mol Cell Cardiol 52:971-977; Zhou et al., 2008. J Mol Cell Cardiol 45:832-838; Zhou et al., 2006. Circ Res 98:1040-1047). Single cell voltage clamp and organ level optical mapping is used to evaluate the downstream effects of IL-18 and Nox4. […] Based on these acute and chronic data, a mutant mouse with cardiac-specific Nox4 genetic depletion in a sickle cell mouse background is generated to functionally validate the role of cardiac Nox4 in sickle cell cardiomyopathy and inducible VT.

The mark [6] stands for this setting: short-term administration, tumor necrosis factor-α-induced vaso-occlusion model.
Where [7] appears, read: IL-18 via the perfusate (20 ng/min), sickle mice hearts.
Where [8] appears, read: sickle mouse cardiomyocytes in the presence of IL-18.
Where [9] appears, read: sustained (3 weeks) IL-18 inhibition.

As to `Nc1ncn([C@H]2C[C@H](O)[C@@H](CO)O2)c(=O)n1` [decitabine, 5-Aza-2′-deoxycytidine], the “sickle cell patients responding with an increase in HbF levels” value in data set [1] (including patients who had failed to respond to hydroxyurea) is reported as 100%. Besides, in [1] (sickle cell patients), the dose-limiting toxicity entry is reported as “reversible neutropenia”, the “increase in total hemoglobin levels” value is listed as 2 g/dL and the reticulocyte counts result was “decreased”.

With `C=CC1=C(C)c2cc3[n-]c(cc4[n-]c(cc5nc(cc1n2)C(C)=C5C=C)c(C)c4CCC(=O)O)c(CCC(=O)O)c3C.[Fe+2]` [heme], the IL-18 protein expression result in data set [2] is recorded as “induced IL-18 protein expression”; in data set [2] (listed as Heme), “induces IL-18 protein expression”.

Take `NC(=O)NO` [hydroxyurea]: the “frequency of painful crises, episodes of acute chest syndrome, transfusion requirements and hospitalizations” value in data set [3] (large multicenter study) is listed as “marked decrease”. Moreover, in data set [3] (patients), the survival entry is listed as “improved survival”. Further, the “hemolytic anemia at baseline” value with sickle mice (long-term administration in sickle mice) is on record as “does not improve”. Besides, in the data set on sickle mice (setting [6]), the animal survival entry is “prolonged animal survival” and the “leukocyte recruitment to the microvasculature” value is on record as “significantly altered”.

B1: IL-18: exogenous IL-18 cytokine administered to mouse hearts, mice or cardiomyocytes (protein, UniProt P70380 36-192, looked up)
Interleukin-18: NFGRLHCTTAVIRNINDQVLFVDKRQPVFEDMTDIDQSASEPQTRLIIYMYKDSEVRGLAVTLSVKDSKMSTLSCKNKIISFEEMDPPENIDDIQSDLIFFQKRVPGHNKMEFESSLYEGHFLACQKEDDAFKLILKKKDENGDKSVMFTLTNLHQS
Turning to B1, in the data set with sickle mice hearts (setting [7]), the “action potential duration (APD)” value is “prolonged APD; also recorded: APD prolongation”; the “conduction velocity (CV), transverse and longitudinal” value was “reduced trends in CV; also recorded: Trends in slowing”; the “rise time of action potentials” value is given as “Increased rise time”. For the same molecule, the “electrical effects after 20 minutes of IL-18 administration” value in the data set with sickle mice hearts (after 20 minutes of perfusion) is “APD prolongation, atrioventricular block, and a slowed heart rate”. In addition, the “development of multiple PVCs and short-lived VTs” value in the data set on sickle mice hearts (longer perfusion of IL-18, sickle hearts) is 4/4. Also, the “changes in APD, CV and rise time” value with WT mice hearts is given as “no significant changes”. Also, in data set [4] (in 10 minutes, fresh cardiomyocytes isolated from a sickle mouse), the “reduction of Ito” value stood at 47 % reduction. Also, in [4] (sickle group, IL-18 25 ng/mL, at 50 mV), the “peak Ito” value worked out at 3.1±0.8 pA/pF. Besides, in data set [4] (setting [8]), the “Ito (in words)” value is on record as “reduce Ito current; also recorded: further reduced” and the “fast inactivating Ito” value is recorded as “mostly abolished”. In [5], the “cardiac Nox4, p38 activation and nitrotyrosine levels” value was “increases Nox4 levels; also recorded: acutely induces; also recorded: activated”.

B2: IL-18bp: naturally occurring protein that binds to IL-18 and prevents it from activating its receptor (protein, UniProt Q9Z0M9 29-193, looked up)
Interleukin-18-binding protein: TSAPQTTATVLTGSSKDPCSSWSPAVPTKQYPALDVIWPEKEVPLNGTLTLSCTACSRFPYFSILYWLGNGSFIEHLPGRLKEGHTSREHRNTSTWLHRALVLEELSPTLRSTNFSCLFVDPGQVAQYHIILAQLWDGLKTAPSPSQETLSSHSPVSRSAGPGVA
Take B2: in the data set with IL-18, the “myocardial fibrosis (Picrosirius Red staining)” value is reported as “reduced” and the “diastolic function (change in E/E′, LV filling pressures, on echocardiography)” value is “improved cardiac function”. In the data set with IL-18 (listed as IL-18 bp), the “myocardial fibrosis (Picrosirius Red staining)” value is recorded as “reduced myocardial fibrosis” and the “diastolic function (change in E/E′, LV filling pressures, on echocardiography)” value is reported as “improved”. Moreover, in the data set with IL-18 (setting [9]), the “cardiac IL-18R (β subunit) and Nox4 expression” value was “reduced cardiac Nox4 and IL-18R expression levels; also recorded: reduced cardiac IL-18R (β subunit) and Nox4 expression”; the myocardial apoptosis result was “reduced myocardial apoptosis”.
